assay: First-order nonenzymatic deamidation of pentapeptides in Tris buffer; type: physicochemical; conditions: pH 7.4, 37.0° C., 0.15 M Tris HCl; Asn pentapeptides
Procedure, shortened: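 First-order deamidation rates determined for XxxAsnYyy and XxxGlnYyy pentapeptides in 0.15 M Tris buffer, pH 7.4, 37° C. Not all values were measured directly: several Asn rates were estimated and most Gln rates came from surface fitting.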

Substance | First-Order Deamidation Halftimes of GlyXxxAsnYyyGly [days]
GlyTrpAsnHisGly (GWNHG; printed: GlyTrpAsnHisGly) | 11.3
GlyTrpAsnIleGly (GWNIG; printed: GlyTrpAsnIleGly) | 286
GlyTrpAsnLeuGly (GWNLG; printed: GlyTrpAsnLeuGly) | 133
GlyTrpAsnLysGly (GWNKG; printed: GlyTrpAsnLysGly) | 59.4
GlyTrpAsnMetGly (GWNMG; printed: GlyTrpAsnMetGly) | 64.2
GlyTrpAsnPheGly (GWNFG; printed: GlyTrpAsnPheGly) | 71.1
GlyTrpAsnSerGly (GWNSG; printed: GlyTrpAsnSerGly) | 15.5
GlyTrpAsnThrGly (GWNTG; printed: GlyTrpAsnThrGly) | 38.9
GlyTrpAsnTrpGly (GWNWG; printed: GlyTrpAsnTrpGly) | 135
GlyTrpAsnTyrGly (GWNYG; printed: GlyTrpAsnTyrGly) | 92.6
GlyTrpAsnValGly (GWNVG; printed: GlyTrpAsnValGly) | 226
GlyTyrAsnAlaGly (GYNAG; printed: GlyTyrAsnAlaGly) | 24.3
GlyTyrAsnAmCysGly | 33.3
GlyTyrAsnArgGly (GYNRG; printed: GlyTyrAsnArgGly) | 56.9
GlyTyrAsnAspGly (GYNDG; printed: GlyTyrAsnAspGly) | 28.4
GlyTyrAsnCysGly (GYNCG; printed: GlyTyrAsnCysGly) | 48.6
GlyTyrAsnGluGly (GYNEG; printed: GlyTyrAsnGluGly) | 41.0
GlyTyrAsnGlyGly (GYNGG; printed: GlyTyrAsnGlyGly) | 1.49
GlyTyrAsnHisGly (GYNHG; printed: GlyTyrAsnHisGly) | 10.2
GlyTyrAsnIleGly (GYNIG; printed: GlyTyrAsnIleGly) | 306
GlyTyrAsnLeuGly (GYNLG; printed: GlyTyrAsnLeuGly) | 118
GlyTyrAsnLysGly (GYNKG; printed: GlyTyrAsnLysGly) | 55.1

Substance | First-Order Deamidation Halftimes of GlyXxxAsnYyyGly [days]
GlyTyrAsnMetGly (GYNMG; printed: GlyTyrAsnMetGly) | 64.3
GlyTyrAsnPheGly (GYNFG; printed: GlyTyrAsnPheGly) | 58.0
GlyTyrAsnProGly (GYNPG; printed: GlyTyrAsnProGly) | 9830
GlyTyrAsnSerGly (GYNSG; printed: GlyTyrAsnSerGly) | 11.9
GlyTyrAsnThrGly (GYNTG; printed: GlyTyrAsnThrGly) | 38.1
GlyTyrAsnTrpGly (GYNWG; printed: GlyTyrAsnTrpGly) | 120
GlyTyrAsnTyrGly (GYNYG; printed: GlyTyrAsnTyrGly) | 70.6
GlyTyrAsnValGly (GYNVG; printed: GlyTyrAsnValGly) | 241
GlyValAsnAlaGly (GVNAG; printed: GlyValAsnAlaGly) | 27.5
GlyValAsnAmCysGly | 34.7
GlyValAsnArgGly (GVNRG; printed: GlyValAsnArgGly) | 67.4
GlyValAsnAspGly (GVNDG; printed: GlyValAsnAspGly) | 33.5
GlyValAsnCysGly (GVNCG; printed: GlyValAsnCysGly) | 63.2
GlyValAsnGluGly (GVNEG; printed: GlyValAsnGluGly) | 64.8
GlyValAsnGlyGly (GVNGG; printed: GlyValAsnGlyGly) | 1.23
GlyValAsnHisGly (GVNHG; printed: GlyValAsnHisGly) | 10.2
GlyValAsnIleGly (GVNIG; printed: GlyValAsnIleGly) | 366
GlyValAsnLeuGly (GVNLG; printed: GlyValAsnLeuGly) | 154
GlyValAsnLysGly (GVNKG; printed: GlyValAsnLysGly) | 63.8
GlyValAsnMetGly (GVNMG; printed: GlyValAsnMetGly) | 65.7
GlyValAsnPheGly (GVNFG; printed: GlyValAsnPheGly) | 66.6
GlyValAsnProGly (GVNPG; printed: GlyValAsnProGly) | 8030

same assay, conditions: pH 7.4, 37.0 ° C., 0.15 M Tris HCl; Gln pentapeptides; 52 values measured, rest derived from surface fitting

Substance | First-Order Deamidation Halftimes of GlyXxxGlnYyyGly [days]
GlyTrpGlnAlaGly (GWQAG; printed: GlyTrpGlnAlaGly) | 7400
GlyTrpGlnArgGly (GWQRG; printed: GlyTrpGlnArgGly) | 8300
GlyTrpGlnAspGly (GWQDG; printed: GlyTrpGlnAspGly) | 8800
GlyTrpGlnCysGly (GWQCG; printed: GlyTrpGlnCysGly) | 2300
GlyTrpGlnGluGly (GWQEG; printed: GlyTrpGlnGluGly) | 8500
GlyTrpGlnGlyGly (GWQGG; printed: GlyTrpGlnGlyGly) | 850
GlyTrpGlnHisGly (GWQHG; printed: GlyTrpGlnHisGly) | 7500
GlyTrpGlnIleGly (GWQIG; printed: GlyTrpGlnIleGly) | 8000
GlyTrpGlnLeuGly (GWQLG; printed: GlyTrpGlnLeuGly) | 7900
GlyTrpGlnLysGly (GWQKG; printed: GlyTrpGlnLysGly) | 7600
GlyTrpGlnMetGly (GWQMG; printed: GlyTrpGlnMetGly) | 5300
GlyTrpGlnPheGly (GWQFG; printed: GlyTrpGlnPheGly) | 8600
GlyTrpGlnProGly (GWQPG; printed: GlyTrpGlnProGly) | 11000
GlyTrpGlnSerGly (GWQSG; printed: GlyTrpGlnSerGly) | 6500
GlyTrpGlnThrGly (GWQTG; printed: GlyTrpGlnThrGly) | 5600
GlyTrpGlnTrpGly (GWQWG; printed: GlyTrpGlnTrpGly) | 19000
GlyTrpGlnTyrGly (GWQYG; printed: GlyTrpGlnTyrGly) | 14000
GlyTrpGlnValGly (GWQVG; printed: GlyTrpGlnValGly) | 8200

Substance | First-Order Deamidation Halftimes of GlyXxxGlnYyyGly [days]
GlyTyrGlnAlaGly (GYQAG; printed: GlyTyrGlnAlaGly) | 7300
GlyTyrGlnArgGly (GYQRG; printed: GlyTyrGlnArgGly) | 8100
GlyTyrGlnAspGly (GYQDG; printed: GlyTyrGlnAspGly) | 8600
GlyTyrGlnCysGly (GYQCG; printed: GlyTyrGlnCysGly) | 2200
GlyTyrGlnGluGly (GYQEG; printed: GlyTyrGlnGluGly) | 8300
GlyTyrGlnGlyGly (GYQGG; printed: GlyTyrGlnGlyGly) | 850
GlyTyrGlnHisGly (GYQHG; printed: GlyTyrGlnHisGly) | 7400
GlyTyrGlnIleGly (GYQIG; printed: GlyTyrGlnIleGly) | 7900
GlyTyrGlnLeuGly (GYQLG; printed: GlyTyrGlnLeuGly) | 7800
GlyTyrGlnLysGly (GYQKG; printed: GlyTyrGlnLysGly) | 7500
GlyTyrGlnMetGly (GYQMG; printed: GlyTyrGlnMetGly) | 5300
GlyTyrGlnPheGly (GYQFG; printed: GlyTyrGlnPheGly) | 8700
GlyTyrGlnProGly (GYQPG; printed: GlyTyrGlnProGly) | 11000
GlyTyrGlnSerGly (GYQSG; printed: GlyTyrGlnSerGly) | 6400
GlyTyrGlnThrGly (GYQTG; printed: GlyTyrGlnThrGly) | 5600
GlyTyrGlnTrpGly (GYQWG; printed: GlyTyrGlnTrpGly) | 18000
GlyTyrGlnTyrGly (GYQYG; printed: GlyTyrGlnTyrGly) | 14000
GlyTyrGlnValGly (GYQVG; printed: GlyTyrGlnValGly) | 8000

— US20050118674A1, “Engineering of Controlled Deamidation Rates in Peptides, Proteins, and Similar Structures” (priority 2003, published 2005)
